From US20240390418A1 (MINERVA BIOTECHNOLOGIES, published 2024)

B1: C-10 peptide (peptide)
peptide: GTINVHDVETQFNQYKTEAASRYNLTISDVSVSDV
notes: also called PSMGFR C-10; PSMGFR minus 10 amino acids from the C-terminus

Experiments:
dimeric NME1 = target: T1, dimeric NME1 (Homo sapiens (Human), UniProt P15531 1-152, limits assumed); test: ELISA, peptide on plate (FIG. 2D)
T1 construct: also called NM23-H1 dimers; dimeric NM23-H1
Protocol: (§1) FIGS. 2A-2I show results of ELISA assays. MUC1* peptides PSMGFR, PSMGFR minus 10 amino acids from the N-terminus aka N-10, or PSMGFR minus 10 amino acids from the C-terminus, aka C-10 are immobilized on the plate and the following are assayed for binding: NME7-AB (FIG. 2A), MNC2 monoclonal antibody (FIG. 2B), MNE6 monoclonal antibody (FIG. 2C), or dimeric NME1 (FIG. 2D). […] MUC1* peptides PSMGFR minus 10 amino acids from the N-terminus aka N-10, or PSMGFR minus 10 amino acids from the C-terminus, aka C-10, are immobilized on the plate and the following are assayed for binding: MNC3 (FIG. 2E) and MNC8 (FIG. 2F).

NME7AB = target: T2, NME7AB (Homo sapiens (Human), UniProt Q9Y5B8 92-376); test: ELISA, peptide on plate (FIG. 2A)
T2 construct: NME7A in the text appears to be NME7AB; also called NM23-H7; NME7A
T2 sequence: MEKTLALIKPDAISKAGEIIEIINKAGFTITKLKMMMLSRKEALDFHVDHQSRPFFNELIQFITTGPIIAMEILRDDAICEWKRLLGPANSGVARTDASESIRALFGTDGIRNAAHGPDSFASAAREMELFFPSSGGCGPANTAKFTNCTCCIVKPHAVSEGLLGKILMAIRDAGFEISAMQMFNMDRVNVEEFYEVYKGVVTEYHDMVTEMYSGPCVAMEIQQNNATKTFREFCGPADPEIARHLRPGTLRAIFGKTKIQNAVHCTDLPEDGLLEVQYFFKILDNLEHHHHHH
Protocol: as §1

C-10 peptide [1] = target: B1; test: peptide ELISA
N-10 peptide [2] = target: T3, N-10 peptide; test: ELISA, peptide on plate (FIG. 2B-2C)
T3 construct: also called PSMGFR N-10; PSMGFR minus 10 amino acids from the N-terminus
T3 peptide: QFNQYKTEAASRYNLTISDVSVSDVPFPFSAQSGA

[3] = target: T4, MUC1* expressed on HCT-116 cells transfected with MUC1* (extra cellular domain is just the PSMGFR sequence) (Homo sapiens (Human), UniProt P15941 1110-1255); test: flow cytometry (FIG. 4D-4F)
T4 construct: In Western blot rows the same protein stood denatured in cell lysate; also called HCT-MUC1*; HCT-FLR
T4 sequence: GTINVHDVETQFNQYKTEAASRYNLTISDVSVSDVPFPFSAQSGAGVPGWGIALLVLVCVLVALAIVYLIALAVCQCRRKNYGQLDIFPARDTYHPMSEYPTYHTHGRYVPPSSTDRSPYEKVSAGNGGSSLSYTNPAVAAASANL

N+9/C-9 peptide [4] = target: T5, N+9/C-9 peptide; test: ELISA, peptide on plate (FIG. 63)
T5 peptide: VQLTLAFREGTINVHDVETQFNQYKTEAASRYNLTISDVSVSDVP
Protocol: (§2) ELISA assays were performed to determine if, in addition to recognizing their immunizing peptide, they recognized PSMGFR, N-10 or C-10. In addition, they were tested for their ability to bind to N+20/C-27, N+9/C-9. We first did the ELISA assay on our set of reference antibodies, MNC2, MNE6, which we know are cancer-specific plus MNC3, which we know recognizes stem cells and progenitor cells (FIG. 63A-63B). None of the reference antibodies bound to the N+20/C-27 peptide. MNC2 and MNE6 cannot bind to PSMGFR peptides with 27, 10 or 9 C-terminal deletions, however, MNC3 binds to C-10 and to N+9/C-9 peptides.

N+20/C-27 peptide [5] = target: T6, N+20/C-27 peptide; test: ELISA, peptide on plate (FIG. 63)
T6 peptide: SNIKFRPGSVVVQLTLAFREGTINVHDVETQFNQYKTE
Protocol: as §2

PSMGFR peptide [6] = target: T7, PSMGFR peptide; test: ELISA, peptide on plate (FIG. 2C)
T7 construct: also called MUC1* peptide
T7 peptide: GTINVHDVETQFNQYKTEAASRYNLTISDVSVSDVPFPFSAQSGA

PSMGFR peptide [7] = target: T7, PSMGFR peptide; test: ELISA, peptide on plate
[8] = target: T4, MUC1* expressed on HCT-116 cells …; test: denaturing Western blot of cell lysates, linear epitope test (FIG. 74)
Protocol: Antibodies were tested to determine whether they recognize a linear or a conformational epitope. Only antibodies that recognize a linear epitope work in Western blots when using denaturing gels. […] The antibodies tested for comparison are MNC2 and MNE6, which were known to only recognize a conformational epitope, SDIX which is a polyclonal antibody raised against PSMGFR and VU4H5, which is a commercially available monoclonal antibody that recognizes the tandem repeats of full-length MUC1 (FIG. 71A-71D). […] The SDIX polyclonal antibody recognizes HCT-MUC1* but not full-length MUC1 and VU4H5 only recognizes full-length MUC1. These same antibodies were also tested for their ability to work in Western blots of two breast cancer cell lines 1500, aka Zr-75-1, and T47D cells and show the same binding pattern (FIG. 71E-71H).
Antibodies that were raised against the PSMGFR peptide were tested the same way in Western blots (FIG. 72A-72P). […] Antibodies that were raised against the N+20/C-27 peptide were tested the same way in Western blots (FIG. 73A-73J). […] Antibodies 1E4 and 45C11 may recognize a conformational epitope. Antibodies that were raised against the N+9/C-9 peptide were tested the same way in Western blots (FIG. 74A-74H). […] These antibodies may recognize a conformational epitope.

N+9/C-9 peptide [9] = target: T5, N+9/C-9 peptide; test: ELISA, peptide on plate (FIG. 66)
N+20/C-27 peptide [10] = target: T6, N+20/C-27 peptide; test: ELISA, peptide on plate (FIG. 66)
N-19 peptide = target: T8, N-19 peptide; test: ELISA, peptide on plate (FIG. 69)
T8 peptide: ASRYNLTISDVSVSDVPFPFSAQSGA

N-26 peptide = target: T9, N-26 peptide; test: ELISA, peptide on plate (FIG. 69)
T9 peptide: ISDVSVSDVPFPFSAQSGA

N-19/C-5 peptide = target: T10, N-19/C-5 peptide; test: ELISA, peptide on plate (FIG. 69)
T10 peptide: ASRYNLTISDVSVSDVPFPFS

N-10/C-5 peptide = target: T11, N-10/C-5 peptide; test: ELISA, peptide on plate (FIG. 69)
T11 peptide: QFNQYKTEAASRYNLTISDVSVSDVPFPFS

N-10 peptide [11] = target: T3, N-10 peptide; test: ELISA, peptide on plate (FIG. 69)
N-30 peptide = target: T12, N-30 peptide; test: ELISA, peptide on plate (FIG. 69)
T12 peptide: SVSDVPFPFSAQSGA

C-10 peptide [12] = target: B1; test: ELISA, peptide on plate (FIG. 69)

T1 sequence (P15531 whole entry): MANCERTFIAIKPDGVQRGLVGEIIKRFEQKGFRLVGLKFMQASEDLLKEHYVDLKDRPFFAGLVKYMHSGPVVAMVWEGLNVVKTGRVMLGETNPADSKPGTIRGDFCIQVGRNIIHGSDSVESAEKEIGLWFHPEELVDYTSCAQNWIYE

B1
binding result (dimeric NME1): no binding
binding result (NME7AB): no binding

B2: mouse monoclonal antibody MNE6 (antibody, V domains shown)
VH: EVKVVESGGDLVKPGGSLKLSCVVSGFTFSRYGMSWVRQTPGKRLEWVATISGGGTYIYYPDSVKGRFTISRDNAKNTLYLQMSSLKSEDTAMYHCTRDNYGRNYDYGMDYWGQGTSVTVSS
VL: QIVLTQSPAIMSASPGEEVTLTCSATSSVSYIHWFQQRPGTSPKLWIYSTSNLASGVPVRFSGSGYGTSYSLTISRMEAEDAATYYCQQRSSSPFTFGSGTKLEIK
notes: Mouse monoclonal raised against the PSMGFR peptide; also called Min-E6
binding result (C-10 peptide [1]): no binding
binding result (N-10 peptide [2]): binds
binding result [3]: binds
binding result (N+9/C-9 peptide [4]): no binding (tested: 10 ug/mL or 1 ug/mL)
binding result (N+20/C-27 peptide [5]): no binding
binding result (PSMGFR peptide [6]): binds

B3: monoclonal antibody 8A9 (antibody, V domains shown)
VH: EVELVESGGGLVQPGGSLRLSCATSGFTFTDHYMSWVRQPPGKALEWLGFIRNKANGYTTEYSASVKGRFTISRDNSQSILYLQMKTLRTEDSATYYCARPSDWDSWFAYWGQGTLVTVSA
VL: DVLMTQTPLSLPVSLGDQASISCRSSQSIVHSNGNTYLDWYLQKPGQSPKLLIYRVSNRFSGVPDRFSGSGSGTDFTLKISRVEAEDLGLYYCFQGSHVPWAFGGGTKLEIK
notes: Raised against the N+9/C-9 peptide; also called N+9/C-9 antibody 8A9
binding result (PSMGFR peptide [7]): no binding
binding result [8]: no binding
binding result (N+9/C-9 peptide [9]): binds
binding result (N+20/C-27 peptide [10]): no binding
binding result (N-19 peptide): no binding
binding result (N-26 peptide): no binding
binding result (N-19/C-5 peptide): no binding
binding result (N-10/C-5 peptide): no binding
binding result (N-10 peptide [11]): no binding
binding result (N-30 peptide): no binding
binding result (C-10 peptide [12]): no binding
